Laboratory results: patent US20240092919A1 (Ablynx, published 2024)
One block for each binder: values may come before it.

Tests used:
human CD33 on cells [1] = molecular target: human CD33 on cells (human, UniProt P20138 18-364); assay: cell-based or functional assay
Target sequence in this assay (P20138 18-364): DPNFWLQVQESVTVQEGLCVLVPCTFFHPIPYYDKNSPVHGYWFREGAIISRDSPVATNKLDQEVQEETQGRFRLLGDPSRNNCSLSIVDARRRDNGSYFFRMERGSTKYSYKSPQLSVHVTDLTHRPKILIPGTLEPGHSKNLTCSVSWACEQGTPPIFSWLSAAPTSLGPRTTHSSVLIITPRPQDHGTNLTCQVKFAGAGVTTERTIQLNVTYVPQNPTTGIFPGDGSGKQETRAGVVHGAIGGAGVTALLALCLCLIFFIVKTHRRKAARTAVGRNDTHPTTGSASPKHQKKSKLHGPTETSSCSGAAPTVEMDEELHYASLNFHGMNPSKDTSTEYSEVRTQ

human CD123 on cells [2] = molecular target: human CD123 on cells (human, UniProt P26951 19-378); assay: cell-based or functional assay
cynomolgus serum albumin [3] = molecular target: T1, cynomolgus serum albumin (cynomolgus monkey, UniProt A2V9Z4 25-608); assay: SPR (ProteOn XPR36, 37°C), albumin immobilised
T1 construct: also called CSA

human CD33 on cells [4] = molecular target: T2, human CD33 on cells (human, UniProt P20138 18-364); assay: cell-based or functional assay; remark: listed apart in the source
T2 sequence (P20138 18-364): as above

human CD123 on cells [5] = molecular target: T3, human CD123 on cells (human, UniProt P26951 19-378); assay: cell-based or functional assay; remark: listed apart in the source
cynomolgus CD33 on cells = cynomolgus CD33 on cells (cynomolgus); assay: cell-based or functional assay
[6] = molecular target: cynomolgus CD123 on cells (cynomolgus); assay: cell-based or functional assay
[7] = molecular target: T4, human TCR on primary human T cells (human, UniProt P01848 1-140; P01850 1-176); assay: cell-based or functional assay
T4 TCR alpha (looked up): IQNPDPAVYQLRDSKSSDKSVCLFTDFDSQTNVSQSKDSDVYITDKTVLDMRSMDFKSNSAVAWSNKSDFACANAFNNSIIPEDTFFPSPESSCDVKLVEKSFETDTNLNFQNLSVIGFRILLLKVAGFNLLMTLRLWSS
T4 TCR beta (looked up): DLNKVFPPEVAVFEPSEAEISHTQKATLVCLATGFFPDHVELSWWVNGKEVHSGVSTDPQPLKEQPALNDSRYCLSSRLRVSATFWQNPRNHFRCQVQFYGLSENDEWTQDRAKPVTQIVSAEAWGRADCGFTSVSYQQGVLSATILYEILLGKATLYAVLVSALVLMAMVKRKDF

[8] = molecular target: cynomolgus TCR on primary cynomolgus T cells (cynomolgus); assay: cell-based or functional assay
[9] = molecular target: T5, Cynomolgus TCR(AEA41865/AEA41866)-zipper protein (cynomolgus); assay: SPR, ProteOn XPR36, 37 C; TCR-zipper coated on GLC chip
T5 construct: also called cyTCR-zipper; cyTCR(AEA41865)-zipper
T5 TCR alpha: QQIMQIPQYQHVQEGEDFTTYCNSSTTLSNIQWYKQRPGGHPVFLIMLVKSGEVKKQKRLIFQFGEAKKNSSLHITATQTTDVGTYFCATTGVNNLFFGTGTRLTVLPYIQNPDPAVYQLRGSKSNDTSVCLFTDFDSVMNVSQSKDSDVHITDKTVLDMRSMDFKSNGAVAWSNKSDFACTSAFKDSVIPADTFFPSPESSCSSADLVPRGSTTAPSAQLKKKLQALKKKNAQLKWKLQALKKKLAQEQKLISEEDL
T5 TCR beta: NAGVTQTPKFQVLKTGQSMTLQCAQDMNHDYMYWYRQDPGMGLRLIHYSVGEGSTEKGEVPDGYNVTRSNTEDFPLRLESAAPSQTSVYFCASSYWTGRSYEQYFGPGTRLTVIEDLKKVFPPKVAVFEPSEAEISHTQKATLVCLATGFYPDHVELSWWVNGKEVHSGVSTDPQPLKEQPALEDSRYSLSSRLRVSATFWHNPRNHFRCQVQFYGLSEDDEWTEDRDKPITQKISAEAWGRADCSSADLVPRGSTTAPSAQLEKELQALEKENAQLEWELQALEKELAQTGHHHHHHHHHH

huCD33L-Fc = molecular target: T6, huCD33L-Fc (human, UniProt P20138 18-259); assay: SPR, ProteOn XPR36, 37 C; CD33L-Fc captured on anti-huIgG (Fc)
T6 construct: also called Human CD33L-Fc; not shown: Fc part, not described (captured by anti-huIgG (Fc))

cyCD33L-Fc = molecular target: T7, cyCD33L-Fc (cynomolgus); assay: as above
T7 construct: also called Cynomolgus CD33L-Fc

huCD123-Fc = molecular target: T8, huCD123-Fc (human, UniProt P26951 19-305); assay: SPR, ProteOn XPR36, 37 C; CD123-Fc captured on anti-huIgG (Fc)
T8 construct: also called Human CD123-Fc; not shown: Fc part, not described (captured by anti-huIgG (Fc))
T8 sequence: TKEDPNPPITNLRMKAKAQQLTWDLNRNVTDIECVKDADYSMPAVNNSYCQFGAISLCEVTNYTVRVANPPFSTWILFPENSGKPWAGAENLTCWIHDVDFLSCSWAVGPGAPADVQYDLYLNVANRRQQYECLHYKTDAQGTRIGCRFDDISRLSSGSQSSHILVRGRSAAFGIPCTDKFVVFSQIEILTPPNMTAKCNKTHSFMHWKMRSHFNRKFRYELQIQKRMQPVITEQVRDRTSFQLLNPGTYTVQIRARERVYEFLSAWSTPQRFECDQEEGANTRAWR

cyCD123-Fc = molecular target: T9, cyCD123-Fc (cynomolgus); assay: as above
T9 construct: also called Cynomolgus CD123-Fc

mouse serum albumin = molecular target: T10, mouse serum albumin (mouse, UniProt P07724 25-608); assay: SPR, ProteOn XPR36, 37 C; albumin immobilised by amine coupling
T10 construct: also called MSA

cynomolgus serum albumin [10] = molecular target: T11, cynomolgus serum albumin (cynomolgus); assay: as above
T11 construct: also called CSA

human serum albumin = molecular target: T12, human serum albumin (human, UniProt P02768 25-609); assay: as above
T12 construct: also called HSA

[11] = molecular target: T4, human TCR on primary human T cells; assay: flow cytometry competition on primary human T cells; competitor FLAG3His6 tagged monovalent TCR ISVD; global (weighted) IC50, n = 4
[12] = molecular target: T13, cynomolgus TCR on primary cynomolgus T cells (cynomolgus); assay: flow cytometry competition on primary cynomolgus T cells; competitor FLAG3His6 tagged monovalent TCR ISVD; global (weighted) IC50, n = 7
T13 construct: whole, on cells; also called cyno TCRαβ

human CD123 on cells [13] = molecular target: T3, human CD123 on cells; assay: flow cytometry on CHO Flp-In huCD123 cells; by paragraph 678 with 30 uM HSA, anti-VHH mAb ABH0077 + APC goat anti-mouse; MFI (mean APC) [panel CHO Flp-In huCD123 cells]
human CD33 on cells [14] = molecular target: T2, human CD33 on cells; assay: flow cytometry on CHO Flp-In huCD33-long cells; by paragraph 678 with 30 uM HSA, anti-VHH mAb ABH0077 + APC goat anti-mouse; MFI (mean APC) [panel CHO Flp-In huCD33-long cells]
[15] = molecular target: T14, Human T cell receptor on human primary T cells (human, UniProt P01848 1-140; P01850 1-176); assay: cell-based or functional assay
T14 TCR alpha (looked up): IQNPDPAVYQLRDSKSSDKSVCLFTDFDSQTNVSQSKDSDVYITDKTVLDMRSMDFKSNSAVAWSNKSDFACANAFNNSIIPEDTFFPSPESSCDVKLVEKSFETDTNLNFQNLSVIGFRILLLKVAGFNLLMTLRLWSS
T14 TCR beta (looked up): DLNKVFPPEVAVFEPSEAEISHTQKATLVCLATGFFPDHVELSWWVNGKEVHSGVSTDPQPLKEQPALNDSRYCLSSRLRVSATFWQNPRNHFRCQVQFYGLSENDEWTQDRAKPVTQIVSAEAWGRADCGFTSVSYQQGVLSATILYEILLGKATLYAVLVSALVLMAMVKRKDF

[16] = molecular target: Cynomolgus T cell receptor on cynomolgus primary T cells (cynomolgus monkey); assay: cell-based or functional assay
[17] = molecular target: T15, Cynomolgus TCR(AEA41865/AEA41866)-zipper protein (cynomolgus monkey); assay: SPR, ProteOn XPR36, 25 C, immobilised cyTCR-zipper
T15 construct: also called cyTCR-zipper protein; cynoTCR zipper
T15 TCR alpha: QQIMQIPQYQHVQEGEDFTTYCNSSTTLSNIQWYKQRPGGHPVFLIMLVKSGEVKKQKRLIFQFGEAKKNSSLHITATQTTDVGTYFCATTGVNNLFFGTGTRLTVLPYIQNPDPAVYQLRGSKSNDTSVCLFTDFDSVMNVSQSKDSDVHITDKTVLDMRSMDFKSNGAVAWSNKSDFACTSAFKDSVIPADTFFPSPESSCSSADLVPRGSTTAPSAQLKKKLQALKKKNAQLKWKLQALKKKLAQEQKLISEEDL
T15 TCR beta: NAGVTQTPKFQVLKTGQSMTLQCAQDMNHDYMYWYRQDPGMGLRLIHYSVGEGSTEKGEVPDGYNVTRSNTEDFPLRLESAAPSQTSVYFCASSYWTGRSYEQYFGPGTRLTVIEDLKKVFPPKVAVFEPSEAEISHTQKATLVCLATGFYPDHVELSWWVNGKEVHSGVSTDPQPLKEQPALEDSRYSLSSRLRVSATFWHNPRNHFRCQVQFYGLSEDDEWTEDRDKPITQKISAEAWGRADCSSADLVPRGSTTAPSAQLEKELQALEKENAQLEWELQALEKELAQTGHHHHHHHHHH

T11 sequence (A2V9Z4 25-608): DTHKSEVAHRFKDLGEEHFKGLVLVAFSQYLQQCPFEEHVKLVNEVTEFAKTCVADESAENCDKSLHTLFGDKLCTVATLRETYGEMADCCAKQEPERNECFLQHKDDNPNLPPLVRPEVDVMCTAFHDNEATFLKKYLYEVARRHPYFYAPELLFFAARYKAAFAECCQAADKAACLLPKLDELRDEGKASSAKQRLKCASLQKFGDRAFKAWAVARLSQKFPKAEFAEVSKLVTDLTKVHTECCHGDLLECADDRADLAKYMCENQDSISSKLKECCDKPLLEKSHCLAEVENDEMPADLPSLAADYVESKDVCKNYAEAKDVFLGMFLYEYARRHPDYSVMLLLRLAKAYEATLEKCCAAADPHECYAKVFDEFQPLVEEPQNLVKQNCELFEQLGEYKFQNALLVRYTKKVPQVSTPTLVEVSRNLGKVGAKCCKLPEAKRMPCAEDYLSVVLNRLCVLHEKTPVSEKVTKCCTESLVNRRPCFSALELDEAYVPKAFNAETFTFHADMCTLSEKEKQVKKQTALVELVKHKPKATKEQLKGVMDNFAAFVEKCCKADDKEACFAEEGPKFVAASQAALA
T1 sequence (A2V9Z4 25-608 limits assumed): as the sequence (A2V9Z4 25-608) above
T6 sequence (P20138 18-259 limits assumed): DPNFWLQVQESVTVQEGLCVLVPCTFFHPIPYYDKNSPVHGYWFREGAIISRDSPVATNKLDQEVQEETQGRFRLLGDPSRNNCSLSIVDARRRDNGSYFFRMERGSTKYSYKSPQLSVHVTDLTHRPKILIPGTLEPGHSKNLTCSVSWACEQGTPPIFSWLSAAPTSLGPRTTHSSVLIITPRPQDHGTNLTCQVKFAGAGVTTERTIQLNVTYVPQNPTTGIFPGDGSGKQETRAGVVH
T10 sequence (P07724 25-608 limits assumed): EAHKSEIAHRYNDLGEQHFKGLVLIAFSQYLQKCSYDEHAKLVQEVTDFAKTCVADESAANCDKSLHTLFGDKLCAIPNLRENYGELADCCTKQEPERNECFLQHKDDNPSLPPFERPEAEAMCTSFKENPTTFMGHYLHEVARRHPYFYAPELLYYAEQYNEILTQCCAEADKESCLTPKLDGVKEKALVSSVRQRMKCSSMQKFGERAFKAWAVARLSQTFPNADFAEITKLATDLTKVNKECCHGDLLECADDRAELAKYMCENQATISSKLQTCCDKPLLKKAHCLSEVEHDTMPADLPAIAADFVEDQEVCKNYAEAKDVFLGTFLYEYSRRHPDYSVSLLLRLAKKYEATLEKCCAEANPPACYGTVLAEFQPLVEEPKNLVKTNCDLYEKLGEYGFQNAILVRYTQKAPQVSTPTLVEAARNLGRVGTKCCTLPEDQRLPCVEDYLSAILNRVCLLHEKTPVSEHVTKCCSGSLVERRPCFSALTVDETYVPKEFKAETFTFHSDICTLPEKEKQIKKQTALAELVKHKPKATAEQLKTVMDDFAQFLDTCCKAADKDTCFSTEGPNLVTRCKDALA

binding result (cynomolgus serum albumin [3]): binds
B1: TCRαβ-CD33-CD123 multispecific ISVD construct (other)
chain: DVQLVESGGGVVQPGGSLRLSCVASGYVHKINFYGWYRQAPGKEREKVAHISIGDQTDYADSAKGRFTISRDESKNTVYLQMNSLRPEDTAAYYCRALSRIWPYDYWGQGTLVTVSSGGGGSGGGSEVQLVESGGGVVQPGGSLRLSCAASGGVFRLNSMGWFRQAPGKQRELVAIITSDGDTNYADSVKGRFTISRDQAKNTVYLQMNSLRPEDTALYYCQITYSTSSYSFPINTWGQGTLVTVSSGGGGSGGGSEVQLVESGGGVVQPGGSLRLSCAASGVIFSGNVMGWYRRQAPGKEREWVAAIAEGGSILYRDSVKGRFTISRDNAKNTVYLQMNSLRPEDTALYYCNSHPPVLPYWGQGTLVTVSSGGGGSGGGGSGGGGSGGGGSEVQLVESGGGVVQPGGSLRLSCAASGFTFRSFGMSWVRQAPGKGPEWVSSISGSGSDTLYADSVKGRFTISRDNSKNTLYLQMNSLRPEDTALYYCTIGGSLSRSSQGTLVTVSSA
notes: also called A025001562; CD123-CD33-TCR multispecific ISVD construct
Global IC50, impedance-based (xCELLigence) human T cell mediated killing of CHO hu CD33 cells (human CD33 on cells [1]): 0.054 nM | Global IC50, impedance-based (xCELLigence) human T cell mediated killing of CHO hu CD123 cells (human CD123 on cells [2]): 0.025 nM

Kd [9]: 6.7 nM | Kd (huCD33L-Fc): 7.6 nM | Kd (cyCD33L-Fc): 6.9 nM | Kd (huCD123-Fc): 0.59 nM | Kd (cyCD123-Fc): 2 nM | Kd (mouse serum albumin): < 500 nM | Kd (cynomolgus serum albumin [10]): 7.9 nM | Kd (human serum albumin): 9.7 nM | IC50 [11]: 218 nM | IC50 [12]: 729 nM | EC50 (read off the curve) (human CD123 on cells [13]): ~10 nM | EC50 (read off the curve) (human CD33 on cells [14]): ~70 nM
B2: TCRαβ-CD33-CD123 multispecific ISVD construct (SEQ ID NO: 460) (other)
chain: DVQLVESGGGVVQPGGSLRLSCVASGYVHKINFYGWYRQAPGKEREKVAHISIGDQTDYADSAKGRFTISRDESKNTVYLQMNSLRPEDTAAYYCRALSRIWPYDYWGQGTLVTVSSGGGGSGGGSEVQLVESGGGVVQPGGSLRLSCAASGGVFRLNSMGWFRQAPGKQRELVAIITSDGDTNYADSVKGRFTISRDQAKNTVYLQMNSLRPEDTALYYCQITYSTSSYSFPINTWGQGTLVTVSSGGGGSGGGSEVQLVESGGGVVQPGGSLRLSCAASGVIFSGNVMGWYRRQAPGKEREWVAAIAEGGSILYRDSVKGRFTISRDNAKNTVYLQMNSLRPEDTALYYCNSHPPVLPYWGQGTLVTVSSGGGGSGGGGSGGGGSGGGGSEVQLVESGGGVVQPGGSLRLSCAASGFTFRSFGMSWVRQAPGKGPEWVSSISGSGSDTLYADSVKGRFTISRDNSKNTLYLQMNSLRPEDTALYYCTIGGSLSRSSQGTLVTVSSA
notes: also called A025001562; TCR-CD33-CD123
Global IC50 (M), impedance based human T cell mediated CHO hu CD33 cell killing, E:T 15:1, 50 uM HSA (n = 4) (human CD33 on cells [4]): 1.1e-10 M | Global IC50 (M), impedance based human T cell mediated CHO hu CD123 cell killing, E:T 15:1, 50 uM HSA (n = 7) (human CD123 on cells [5]): 4.4e-11 M | IC50 (M), impedance based cynomolgus T cell mediated CHO Flp-In cynoCD33 cell killing, E:T 15:1, 50 uM HSA (cynomolgus CD33 on cells): 6.2e-12 M | IC50 (M), impedance based cynomolgus T cell mediated CHO Flp-In cynoCD123 cell killing, E:T 15:1, 50 uM HSA [6]: 1.4e-12 M | Global EC50 (M), flow cytometry human T cell mediated MOLM-13 cell killing, E:T 10:1, 50 uM HSA (n = 13) [7]: 1.8e-11 M | EC50 (M), cynomolgus T cell mediated MOLM-13 cell killing, E:T 10:1 [8]: 1.36e-11 M

B3: T017000637 (bispecific antibody)
chain: DVQLVESGGGLVQAGGSLRLSCAASGITSKINDMGWYRQTPGNYREWVASITATGTTNYRDSVKGRFTISRDNAKSTVYLQMNSLKPEDTTVYYCNTFPPISNFWGQGTLVTVSSGGGGSGGGGSGGGGSGGGGSGGGGSGGGGSGGGGSEVQLVESGGGVVQPGGSLRLSCVASWDVHQINFYGWYRQAPGKEREKVAHISIGDQTDYADSAKGRFTISRDESKNTVYLQMNSLRPEDTALYYCRALSRIWPYDYWGQGTLVTVSSA
notes: also called A0110056A10(E1D)-35GS-T0170056G05(L11V, G26W, K30Q, L34Y, M77T, K83R, V89L, F91Y, M95L, Y99W)-A
% Lysis, T cell mediated MOLM-13 cell killing, human primary T cells, E:T 10:1 [15]: 0% | % Lysis, T cell mediated MOLM-13 cell killing, cynomolgus primary T cells, E:T 10:1 [16]: 17% | binding result [17]: no binding (tested: injected between 4.1 nM and 1000 nM)
